B1: NLV2 TCR alpha chain (CDR3α only) (parent)
chain: AGPMKTSYDKVI
partner: NLVGMVATV
B2: NLV2 TCR alpha chain (CDR3α only) (parent)
chain: AGPMKTSYDKVI

Experiments:
[1] = variants of: B1; test: T-Switch: Jurkat TCRβ−/− cells expressing a CDR3 saturation-mutagenesis library, stained with two peptide-HLA-A*02:01 tetramers (original and novel peptide) plus anti-CD3, FACS-sorted into four gates, gDNA sequenced; details: with HLA-A*02:01 with peptide … (NLV 2-2, the original bait), tetramers 1 µg/mL, 30 min on ice, DP and SW gates expanded about 10 days between rounds ('two to three rounds of selection' in the Methods), gate SP: higher = more of the variant in the gate that binds the original peptide and not the novel one = retained original binding. Fold enrichment of the CDR3 variant in one FACS gate of a two-tetra, unresolved parent, parent is a CDR3 fragment, scale: fold enrichment, numbering: sequential-on-construct, sequence …
[2] = variants of: B2; test: as above; details: tetramers 1 µg/mL, 30 min on ice, SP, DP and SW gates expanded about 10 days between rounds ('two to three rounds of selection' in the Methods), unresolved parent, parent is a CDR3 fragment, scale: fold enrichment, numbering: sequential-on-construct, sequence starts at 1
[3] = with both tetramers (double-negative gate, binds neither): HLA-A*02:01 with … and with …, gate DN: OPPOSITE: higher = more of the variant in the gate that binds neither peptide = LESS binding (or no expression; inferred). Fold enrichment of the CDR3 variant in one FACS gate of a two-tetram
[4] = with both tetramers (double-positive gate): HLA-A*02:01 with … and with …, gate DP: higher = more of the variant in the gate that binds both peptides. Fold enrichment of the CDR3 variant in one FACS gate of a two-tetramer stain. SP/DP/SW gates were expanded and re-sorted bef

Row | Variant | enrichment [1] | enrichment [2, 3] | enrichment [2, 4]
1 | […] (CDR3 as printed); A1I derived by comparing it with the table's wild-type CDR3 AGPMKTSYDKVI | 0.473 | – | –
2 | […] (CDR3 as printed); A1G derived by comparing it with the table's wild-type CDR3 AGPMKTSYDKVI | 0 | – | –
3 | […] (CDR3 as printed); A1L derived by comparing it with the table's wild-type CDR3 AGPMKTSYDKVI | 0 | – | –
4 | […] (CDR3 as printed); A1D derived by comparing it with the table's wild-type CDR3 AGPMKTSYDKVI | 0 | – | –
5 | […] (CDR3 as printed); A1R derived by comparing it with the table's wild-type CDR3 AGPMKTSYDKVI | 0 | – | –
6 | […] (CDR3 as printed); A1F derived by comparing it with the table's wild-type CDR3 AGPMKTSYDKVI | 2.07 | – | –
7 | […] (CDR3 as printed); A1E derived by comparing it with the table's wild-type CDR3 AGPMKTSYDKVI | 0.186 | – | –
8 | […] (CDR3 as printed); A1N derived by comparing it with the table's wild-type CDR3 AGPMKTSYDKVI | 0.476 | – | –
9 | […] (CDR3 as printed); A1P derived by comparing it with the table's wild-type CDR3 AGPMKTSYDKVI | 2.46 | – | –
10 | […] (CDR3 as printed); A1C derived by comparing it with the table's wild-type CDR3 AGPMKTSYDKVI | 0.571 | – | –
11 | […] (CDR3 as printed); A1K derived by comparing it with the table's wild-type CDR3 AGPMKTSYDKVI | 0 | – | –
12 | […] (CDR3 as printed); A1M derived by comparing it with the table's wild-type CDR3 AGPMKTSYDKVI | 0.103 | – | –
13 | […] (CDR3 as printed); A1Q derived by comparing it with the table's wild-type CDR3 AGPMKTSYDKVI | 0 | – | –
14 | […] (CDR3 as printed); A1H derived by comparing it with the table's wild-type CDR3 AGPMKTSYDKVI | 1.05 | – | –
15 | […] (CDR3 as printed); V11P derived by comparing it with the table's wild-type CDR3 AGPMKTSYDKVI | – | 0.923 | 0
16 | […] (CDR3 as printed); S7M derived by comparing it with the table's wild-type CDR3 AGPMKTSYDKVI | – | 1.3 | 0
17 | […] (CDR3 as printed); V11M derived by comparing it with the table's wild-type CDR3 AGPMKTSYDKVI | – | 1.2 | 0
18 | […] (CDR3 as printed); S7Q derived by comparing it with the table's wild-type CDR3 AGPMKTSYDKVI | – | 0.986 | 0
19 | […] (CDR3 as printed); T6G derived by comparing it with the table's wild-type CDR3 AGPMKTSYDKVI | – | 1.02 | 0
20 | […] (CDR3 as printed); T6S derived by comparing it with the table's wild-type CDR3 AGPMKTSYDKVI | – | 1.05 | 0
21 | […] (CDR3 as printed); S7W derived by comparing it with the table's wild-type CDR3 AGPMKTSYDKVI | – | 0.807 | 0

Row | Variant | enrichment [1] | enrichment [2, 3] | enrichment [2, 4]
22 | […] (CDR3 as printed); P3I derived by comparing it with the table's wild-type CDR3 AGPMKTSYDKVI | – | 1.09 | 0
23 | […] (CDR3 as printed); Y8L derived by comparing it with the table's wild-type CDR3 AGPMKTSYDKVI | – | 1 | 0
24 | […] (CDR3 as printed); S7E derived by comparing it with the table's wild-type CDR3 AGPMKTSYDKVI | – | 1.01 | 0
25 | […] (CDR3 as printed); P3W derived by comparing it with the table's wild-type CDR3 AGPMKTSYDKVI | – | 0.887 | 0
26 | […] (CDR3 as printed); P3K derived by comparing it with the table's wild-type CDR3 AGPMKTSYDKVI | – | 1.01 | 0
27 | […] (CDR3 as printed); Y8W derived by comparing it with the table's wild-type CDR3 AGPMKTSYDKVI | – | 1.01 | 0
28 | […] (CDR3 as printed); Y8N derived by comparing it with the table's wild-type CDR3 AGPMKTSYDKVI | – | 0.932 | 0
29 | […] (CDR3 as printed); P3G derived by comparing it with the table's wild-type CDR3 AGPMKTSYDKVI | – | 1 | 0
30 | […] (CDR3 as printed); S7Y derived by comparing it with the table's wild-type CDR3 AGPMKTSYDKVI | – | 0.999 | 0
31 | […] (CDR3 as printed); P3L derived by comparing it with the table's wild-type CDR3 AGPMKTSYDKVI | – | 1.13 | 0
32 | […] (CDR3 as printed); P3C derived by comparing it with the table's wild-type CDR3 AGPMKTSYDKVI | – | 0.884 | 0
33 | […] (CDR3 as printed); P3S derived by comparing it with the table's wild-type CDR3 AGPMKTSYDKVI | – | 1.18 | 0
34 | […] (CDR3 as printed); Y8R derived by comparing it with the table's wild-type CDR3 AGPMKTSYDKVI | – | 1.17 | 0
35 | […] (CDR3 as printed); V11K derived by comparing it with the table's wild-type CDR3 AGPMKTSYDKVI | – | 1.49 | 0
36 | […] (CDR3 as printed); T6V derived by comparing it with the table's wild-type CDR3 AGPMKTSYDKVI | – | 0.56 | 0
37 | […] (CDR3 as printed); T6C derived by comparing it with the table's wild-type CDR3 AGPMKTSYDKVI | – | 0.924 | 0
38 | […] (CDR3 as printed); T6M derived by comparing it with the table's wild-type CDR3 AGPMKTSYDKVI | – | 1.45 | 0
39 | […] (CDR3 as printed); T6H derived by comparing it with the table's wild-type CDR3 AGPMKTSYDKVI | – | 1.22 | 0
40 | […] (CDR3 as printed); V11N derived by comparing it with the table's wild-type CDR3 AGPMKTSYDKVI | – | 1.11 | 0
41 | […] (CDR3 as printed); V11A derived by comparing it with the table's wild-type CDR3 AGPMKTSYDKVI | – | 1.13 | 0
42 | […] (CDR3 as printed); M4K derived by comparing it with the table's wild-type CDR3 AGPMKTSYDKVI | – | 0.454 | 0

Row | Variant | enrichment [1] | enrichment [2, 3] | enrichment [2, 4]
43 | […] (CDR3 as printed); Y8Q derived by comparing it with the table's wild-type CDR3 AGPMKTSYDKVI | – | 0.629 | 0
44 | […] (CDR3 as printed); S7R derived by comparing it with the table's wild-type CDR3 AGPMKTSYDKVI | – | 0.927 | 0
45 | […] (CDR3 as printed); S7D derived by comparing it with the table's wild-type CDR3 AGPMKTSYDKVI | – | 0.804 | 0
46 | […] (CDR3 as printed); T6N derived by comparing it with the table's wild-type CDR3 AGPMKTSYDKVI | – | 0.879 | 0
47 | […] (CDR3 as printed); T6I derived by comparing it with the table's wild-type CDR3 AGPMKTSYDKVI | – | 0.515 | 0
48 | […] (CDR3 as printed); S7G derived by comparing it with the table's wild-type CDR3 AGPMKTSYDKVI | – | 0.911 | 0
49 | […] (CDR3 as printed); S7L derived by comparing it with the table's wild-type CDR3 AGPMKTSYDKVI | – | 1.06 | 0
50 | […] (CDR3 as printed); Y8P derived by comparing it with the table's wild-type CDR3 AGPMKTSYDKVI | – | 1.08 | 0
51 | […] (CDR3 as printed); M4L derived by comparing it with the table's wild-type CDR3 AGPMKTSYDKVI | – | 0.995 | 0
52 | […] (CDR3 as printed); P3V derived by comparing it with the table's wild-type CDR3 AGPMKTSYDKVI | – | 1.02 | 0
53 | […] (CDR3 as printed); V11F derived by comparing it with the table's wild-type CDR3 AGPMKTSYDKVI | – | 1.29 | 0
54 | […] (CDR3 as printed); S7T derived by comparing it with the table's wild-type CDR3 AGPMKTSYDKVI | – | 0.968 | 0
55 | […] (CDR3 as printed); T6A derived by comparing it with the table's wild-type CDR3 AGPMKTSYDKVI | – | 0.82 | 0
56 | […] (CDR3 as printed); Y8I derived by comparing it with the table's wild-type CDR3 AGPMKTSYDKVI | – | 1.11 | 0
57 | […] (CDR3 as printed); T6R derived by comparing it with the table's wild-type CDR3 AGPMKTSYDKVI | – | 0.792 | 0
58 | […] (CDR3 as printed); P3E derived by comparing it with the table's wild-type CDR3 AGPMKTSYDKVI | – | 1.15 | 0
59 | […] (CDR3 as printed); S7I derived by comparing it with the table's wild-type CDR3 AGPMKTSYDKVI | – | 1.04 | 0
60 | […] (CDR3 as printed); V11C derived by comparing it with the table's wild-type CDR3 AGPMKTSYDKVI | – | 1.08 | 0
61 | […] (CDR3 as printed); S7C derived by comparing it with the table's wild-type CDR3 AGPMKTSYDKVI | – | 0.877 | 0
62 | […] (CDR3 as printed); P3T derived by comparing it with the table's wild-type CDR3 AGPMKTSYDKVI | – | 0.962 | 0
63 | […] (CDR3 as printed); Y8T derived by comparing it with the table's wild-type CDR3 AGPMKTSYDKVI | – | 1.15 | 0
